We go through ten molecules from PMC7541222, “Novel single-domain antibodies against the EGFR domain III epitope exhibit the anti-tumor effect” (Journal of Translational Medicine, 2020).

Sequences and labels used below:
B1: anti-EGFR single-domain antibody aEG6B2 (purified) (VHH)
VHH: QVQLLESGGGLVQPGGSLRLSCAASGFNVNPKYMTWVRQAPGKGLEWVSSIRSPGGSTYYADSVKGRFTISRDNSKNTLYLQMNSLRAEDTAVYYCASVSRDEKYMRFWGQGTLVTVSS
notes: fully human VH domain on the V3-23/D47 framework with diversified CDR1-3; Fully human VH-only single-domain antibody (about 15 kDa), selected from the Source BioScience human domain antibody library; subcloned NcoI/NotI into pET22b(+); also called anti-EGFR sdAb; source: E. coli BL21 (DE3), pET22b(+), purified (Ni-NTA)
B2: anti-EGFR single-domain antibody aEG2E12 (purified) (VHH)
VHH: QVQLLESGGGLVQPGGSLRLSCAASGYSSNNEFMAWVRQAPGKGLEWVSAISTRNGSTYYADSVKGRFTISRDNSKNTLYLQMNSLRAEDTAVYYCAGVSYRRPQQLKYWGQGTLVTVSS
notes: as for B1
B3: anti-EGFR single-domain antibody aEG1B4 (purified) (VHH)
VHH: QVQLLESGGGLVQPGGSLRLSCAASGVNVSNEVMSWVRQAPGKGLEWVSTIANHSGSTYYADSVKGRFTISRDNSKNTLYLQMNSLRAEDTAVYYCATLYSGATKQLEYWGQGTLVTVSS
notes: as for B1
B4: anti-EGFR single-domain antibody aEG2C7 (purified) (VHH)
VHH: QVQLLESGGGLVQPGGSLRLSCAASGFTFNNEIMAWVRQAPGKGLEWVSSIAANNGSTYYADSVKGRFTISRDNSKNTLYLQMNSLRAEDTAVYYCARYAAEPHTYSMGNKSLRYWGQGTLVTVSS
notes: as for B1
B5: anti-EGFR single-domain antibody aEG4D9 (purified) (VHH)
VHH: QVQLLESGGGLVQPGGSLRLSCAASGDMLSPDNMTWVRQAPGKGLEWVSTIHKTDGSTYYADSVKGRFTISRDNSKNTLYLQMNSLRAEDTAVYYCAGLRSRGLSSKYLEYWGQGTLVTVSS
notes: as for B1
B6: aEG6B2 displayed on phage (phage clone) (VHH)
VHH: B1 VHH
notes: detected by anti-M13-HRP; source: E. coli TG1, phagemid pR2, rescued with M13 helper phage, phage clone
B7: aEG2E12 displayed on phage (phage clone) (VHH)
VHH: B2 VHH
notes: as for B6
B8: aEG1B4 displayed on phage (phage clone) (VHH)
VHH: B3 VHH
notes: as for B6
B9: aEG2C7 displayed on phage (phage clone) (VHH)
VHH: B4 VHH
notes: as for B6
B10: aEG4D9 displayed on phage (phage clone) (VHH)
VHH: B5 VHH
notes: as for B6

T1 sequence (P36911 51-339): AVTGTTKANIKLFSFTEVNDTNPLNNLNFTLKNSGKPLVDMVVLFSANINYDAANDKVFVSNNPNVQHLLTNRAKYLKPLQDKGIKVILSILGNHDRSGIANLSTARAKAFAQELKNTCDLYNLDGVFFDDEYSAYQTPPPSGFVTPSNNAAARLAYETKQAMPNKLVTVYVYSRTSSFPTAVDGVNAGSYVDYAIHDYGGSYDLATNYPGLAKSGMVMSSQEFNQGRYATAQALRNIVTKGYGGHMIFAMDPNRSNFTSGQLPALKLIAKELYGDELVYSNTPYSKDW
T2 sequence (P12643 24-396): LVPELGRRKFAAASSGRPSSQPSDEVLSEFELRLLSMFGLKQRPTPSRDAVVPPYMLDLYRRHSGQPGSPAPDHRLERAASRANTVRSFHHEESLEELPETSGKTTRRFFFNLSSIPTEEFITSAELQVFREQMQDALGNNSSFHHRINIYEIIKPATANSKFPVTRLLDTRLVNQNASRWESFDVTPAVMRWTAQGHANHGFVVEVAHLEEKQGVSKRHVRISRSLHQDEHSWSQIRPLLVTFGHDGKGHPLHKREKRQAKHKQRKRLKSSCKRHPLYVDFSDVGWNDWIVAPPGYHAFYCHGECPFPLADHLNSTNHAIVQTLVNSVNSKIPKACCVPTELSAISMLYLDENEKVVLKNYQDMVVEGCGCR

The first experiment concerns the target T1, EndoF1 (Elizabethkingia meningoseptica (assumed), UniProt P36911).
T1 construct: EndoF1, unrelated antigen used as negative control
Kind of experiment: ELISA; wells of 96-well plates coated with EGFR protein fragment or unrelated antigens; purified sdAbs added; protein A-HRP, TMB, absorbance at 450 nm. As to conditions: both partners purified. (In general: ELISA stands for enzyme-linked immunosorbent assay.)
Consider B1, for which the binding result is “no binding”.

Turning to B2, the binding result is given as “no binding”.

For the molecule B3, the binding result is “no binding”.

For B4, the binding result is on record as “no binding”.

As to B5, the binding result is on record as “no binding”.

Another experiment addresses T2, BMP2 (Homo sapiens (assumed), UniProt P12643).
T2 construct: BMP2, unrelated antigen used as negative control
Described as above. As to conditions: both partners purified.
In the case of B1, the binding result is “no binding”.

Consider B2, for which the binding result was “no binding”.

On to B3, for which the binding result is “no binding”.

Take B4: the binding result was “no binding”.

Regarding B5, the binding result is “no binding”.

Another experiment deals with T3, FGF21 (Homo sapiens (assumed), UniProt Q9NSA1).
T3 construct: FGF21, unrelated antigen used as negative control
T3 sequence (Q9NSA1 29-209): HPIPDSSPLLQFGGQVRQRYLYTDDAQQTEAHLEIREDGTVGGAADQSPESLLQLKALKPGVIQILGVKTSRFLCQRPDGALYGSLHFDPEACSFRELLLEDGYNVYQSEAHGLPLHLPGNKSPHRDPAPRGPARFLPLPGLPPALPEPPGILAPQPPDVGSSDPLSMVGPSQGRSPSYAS
The experiment is described as above. As to conditions: both partners purified.
As for B1, the binding result was “no binding”.

For the molecule B2, the binding result is on record as “no binding”.

Consider B3, for which the binding result was “no binding”.

For B4, the binding result is “no binding”.

Consider B5, for which the binding result is given as “no binding”.

A further experiment concerns the target T4, EGFR on human cancer cells A549, MCF-7 and DU145 (Homo sapiens, UniProt P00533).
T4 construct: Epidermal growth factor receptor (EGFR, HER1, ERBB1), endogenous on the surface of human cancer cell lines; also called HER1; ERBB1; source: endogenous, on live A549, MCF-7 and DU145 cells
Put plainly: flow cytometry on cells; live cells (A549, MCF-7, DU145) in ice-cold PBS with BSA incubated with purified sdAbs; detected with protein A-FITC. The following applies: one partner purified.
As to B1, the binding result is “binds”.

Take B2: the binding result is recorded as “binds”.

Consider B3, for which the binding result is listed as “binds”.

Take B4: the binding result is given as “binds”.

With B5, the binding result is “binds”.

Another experiment concerns the target T1, EndoF1. Put plainly: ELISA; monoclonal phage ELISA: wells of 96-well plates coated with EGFR protein fragment or unrelated antigens, blocked with 2% BSA; phage clones added; anti-M13-HRP, TMB, absorbance at 450 nm. As to conditions: one partner purified.
Consider B6, for which the binding result is recorded as “no binding”.

For B7, the binding result is on record as “no binding”.

Regarding B8, the binding result is reported as “no binding”.

As for B9, the binding result was “no binding”.

In the case of B10, the binding result is “no binding”.

In a further experiment the target is T2, BMP2. Described as above. The following applies: one partner purified.
Consider B6, for which the binding result was “no binding”.

As to B7, the binding result is “no binding”.

Take B8: the binding result is “no binding”.

Regarding B9, the binding result was “no binding”.

For B10, the binding result is “no binding”.

In the next experiment the target is T3, FGF21. The experiment is described as above. The following applies: one partner purified.
As for B6, the binding result is “no binding”.

As to B7, the binding result is “no binding”.

For B8, the binding result is reported as “no binding”.

On to B9, for which the binding result is listed as “no binding”.

In the case of B10, the binding result is on record as “no binding”.

The next experiment has as its target T5, EGFR complete extracellular domain protein (Homo sapiens (assumed), UniProt P00533).
T5 construct: Epidermal growth factor receptor (EGFR, HER1, ERBB1), complete extracellular domain, bought; also called EGFR complete extracellular fragment; EGFR-ECD; source: bought: Shanghai Bootech BioSci. and Technol
Kind of experiment: far-Western, overlay or dot blot; Western blotting: 0.5 ug EGFR complete extracellular domain separated by SDS-PAGE, transferred to PVDF; blot incubated with the sdAbs, then protein A-HRP, chemiluminescence. The following applies: both partners purified. Background: A western blot detects proteins with antibodies after separation by electrophoresis.
Turning to B1, the binding result is on record as “binds”.

Consider B2, for which the binding result is given as “binds”.

In the case of B3, the binding result is listed as “binds”.

Turning to B4, the binding result is “binds”.

Turning to B5, the binding result is “binds”.
